# Test results reported in patent US20180244785A1 (MERRIMACK PHARMACEUTICALS, published 2018).
# Numbering of substitutions follows the chain as printed. Values joined by “and” are separate entries in the source; they are usually repeats but may differ in a detail not shown here. Identical values can stand only once.
# T1: recombinant human FGFR3c Fc fusion (human, UniProt P22607 141-372)
# T1 construct: also called FGFR3IIIc; not shown: Fc part of the FGFR-Fc fusion
# T1 sequence: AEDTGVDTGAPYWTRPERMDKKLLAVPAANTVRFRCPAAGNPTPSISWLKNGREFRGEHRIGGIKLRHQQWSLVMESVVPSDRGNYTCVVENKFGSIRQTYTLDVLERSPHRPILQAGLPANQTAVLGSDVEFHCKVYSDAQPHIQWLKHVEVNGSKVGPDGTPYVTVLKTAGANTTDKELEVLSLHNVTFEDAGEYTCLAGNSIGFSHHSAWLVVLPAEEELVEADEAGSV
# T2: recombinant human FGFR1c Fc fusion (human, UniProt P11362 141-376)
# T2 construct: also called FGFR1IIIc; not shown: Fc part of the FGFR-Fc fusion
# T2 sequence: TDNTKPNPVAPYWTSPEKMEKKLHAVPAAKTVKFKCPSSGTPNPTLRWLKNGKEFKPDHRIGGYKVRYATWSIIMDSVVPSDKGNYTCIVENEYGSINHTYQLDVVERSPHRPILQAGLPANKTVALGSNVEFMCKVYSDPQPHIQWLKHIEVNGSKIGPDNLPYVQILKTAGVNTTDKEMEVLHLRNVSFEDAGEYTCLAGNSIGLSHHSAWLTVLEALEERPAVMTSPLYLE
# T3: recombinant human FGFR4 Fc fusion (human, UniProt P22455 144-369)
# T3 construct: 19 used; also called FGFR4c; not shown: Fc part of the FGFR-Fc fusion
# T3 sequence: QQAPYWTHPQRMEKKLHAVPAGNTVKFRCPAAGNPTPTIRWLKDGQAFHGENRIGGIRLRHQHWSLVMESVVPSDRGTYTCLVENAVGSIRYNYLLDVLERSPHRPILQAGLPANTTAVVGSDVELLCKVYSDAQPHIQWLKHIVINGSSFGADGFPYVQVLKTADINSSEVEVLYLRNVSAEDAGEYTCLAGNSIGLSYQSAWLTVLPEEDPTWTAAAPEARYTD
# T4: 6His-Fc-FGFR4 (human, UniProt P22455 144-369)
# T4 construct: not shown: 6His tag and Fc as named in '6His-Fc-FGFR'
# T4 sequence: T3 sequence
# T5: soluble FGFR1c receptor protein (human, UniProt P11362 141-376)
# T5 sequence: T2 sequence
# T6: soluble FGFR4 receptor protein (human, UniProt P22455 144-369)
# T6 sequence: T3 sequence
# T7: soluble FGFR3c receptor protein (human, UniProt P22607 141-372)
# T7 sequence: T1 sequence
# T8: 6His-Fc-FGFR1c (human, UniProt P11362 141-376)
# T8 construct: not shown: 6His tag and Fc as named in '6His-Fc-FGFR'
# T8 sequence: T2 sequence
# B1: Ab15 (antibody, human IgG2, kappa, V domains shown)
# VH: EVQLLESGGGVVQPGRSLRLSCAASGFTFSSYAMHWVRQAPGKGLEWVAVISYDGSNKYYADSVKGRFTISRDNSKNTLSLQMNSLRVEDTAIYYCVRGAGRGYTYGPDGFDIWGQGTMVTVSS
# VL: DIVMTQTPLSLSVTPGQPASISCTSSRSLLHSDGKTYVYWYVQKSGQPPQLLIYELSNRFSGVPDRFSGSGSRTDFTLKISRVEAEDVGVYYCMQYIEAPLTFGGGTKVEIKR
# notes: Format in each assay not spelled out; also called FGF#26
# B2: Ab60 (antibody, human IgG2, kappa, V domains shown)
# VH: B1 VH with T28D, S30A, S31G, Y104L
# VL: B1 VL
# notes: format in the assays not spelled out
# B3: Ab92 (antibody, human IgG2, kappa, V domains shown)
# VH: B1 VH with R102H, Y104F, T105P, Y106T
# VL: B1 VL with T24R, I97V
# notes: as for B2
# B4: Ab19 (antibody, human IgG2, kappa, V domains shown)
# VH: B1 VH with Y104F, Y106L
# VL: B1 VL with T24K
# notes: as for B2
# B5: Ab90 (antibody, human IgG2, kappa, V domains shown)
# VH: B1 VH with T105P
# VL: B1 VL with I97V, A99V
# notes: as for B2
# B6: Ab23 (antibody, human IgG2, V domains shown)
# VH: B1 VH with Y104L
# VL: DIVMTQTPLSLSVTPGQPASISCKSSRSLLHSDGKTYVYWYVQKSGQPPQLLIYELSNRFSGVPDRFSGSGSRTDFTLKISRVEAEDVGVYYCMQYIEAPLTFGGGTKVEIK
# notes: Format in the assays not spelled out
# B7: Ab4 (scFv format) (scFv)
# scFv: EVQLLESGGGVVQPGRSLRLSCAASGFTFSSYAMHWVRQAPGKGLEWVALISYDGSNKYYADSVKGRFTISRDNSKNTLYLQMNSLRAEDTAIYYCVRGAGRGYTYGPDGFDIWGQGTMVTVSSASTGGGSGGGGSDIVMTQTPLSLSVTPGQPASIFCKSSQSLIFGDGKTYLYWYLQKPGQPPRLLIYQVSNRFSGVPDRFSGSGAGTDFTLKISRVEAEDVGVYYCMQAKQFPWTFGQGTKLEIKRTVAAPSHHHHHH
# notes: also called FGF#10
# Biological target: T1, recombinant human FGFR3c Fc fusion
# Test: solid phase ELISA on coated FGFR-Fc
# Procedure: (§1) For the ELISA assay, the ability of each mAb to cross react with the […] FGF receptors was tested across a concentration curve in order to determine the relative binding across FGFR1-4. FGFR2IIIb was used as a negative control. Black 384-well Maxisorp plates were coated overnight with FGFR-Fc fusions in PBS to 1 ug/ml before washing and blocking with 75 ul/well Pierce Protein Free (PBS) Blocking Buffer for 1 hour at RT. Antibody dilutions were prepared freshly in 1% BSA- PBS+0.05% Tween20 and 25 ul of each antibody was added to wells in duplicate. Plates were incubated at RT for 2 hours, followed by addition of detection antibody at 50 ng/ml in 1% BSA PBS, 0.05% Tween20. ECL substrate (Pierce) was added and plates were read on the EnVision plate reader.
row,Binder,EC50 [nM]
1,B1,0.129
2,B2,0.0687
3,B3,0.264
4,B4,0.0745
5,B5,0.171

# Biological target: T9, recombinant human FGFR2c Fc fusion (human, UniProt P21802 148-377)
# T9 construct: also called FGFR2IIIc; not shown: Fc part of the FGFR-Fc fusion
# Test: solid phase ELISA on coated FGFR-Fc
# Procedure: as §1
# T9 sequence (P21802 148-377): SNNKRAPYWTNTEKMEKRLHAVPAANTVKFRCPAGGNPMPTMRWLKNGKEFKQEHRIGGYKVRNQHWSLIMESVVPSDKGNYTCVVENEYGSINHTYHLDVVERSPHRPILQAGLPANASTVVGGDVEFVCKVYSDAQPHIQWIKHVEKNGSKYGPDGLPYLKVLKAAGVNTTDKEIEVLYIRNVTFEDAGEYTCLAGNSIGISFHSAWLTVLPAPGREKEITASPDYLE
row,Binder,EC50 [nM]
1,B1,0.0147
2,B2,0.0224
3,B3,0.0325
4,B4,0.0127
5,B5,0.036

# Biological target: T2, recombinant human FGFR1c Fc fusion
# Test: solid phase ELISA on coated FGFR-Fc
# Procedure: as §1
row,Binder,EC50 [nM]
1,B1,0.0112
2,B2,0.0117
3,B3,0.0242
4,B4,0.00674
5,B5,0.013

# Biological target: T3, recombinant human FGFR4 Fc fusion
# Test: solid phase ELISA on coated FGFR-Fc
# Procedure: as §1
row,Binder,EC50 [nM]
1,B1,7.56
2,B2,0.31
3,B3,13.1
4,B4,38.2
5,B5,1.26

# Biological target: FGFR1 on tumour cells (UniProt P11362 22-822)
# Test: cell-based or functional assay
# Sequence of FGFR1 on tumour cells (P11362 22-822): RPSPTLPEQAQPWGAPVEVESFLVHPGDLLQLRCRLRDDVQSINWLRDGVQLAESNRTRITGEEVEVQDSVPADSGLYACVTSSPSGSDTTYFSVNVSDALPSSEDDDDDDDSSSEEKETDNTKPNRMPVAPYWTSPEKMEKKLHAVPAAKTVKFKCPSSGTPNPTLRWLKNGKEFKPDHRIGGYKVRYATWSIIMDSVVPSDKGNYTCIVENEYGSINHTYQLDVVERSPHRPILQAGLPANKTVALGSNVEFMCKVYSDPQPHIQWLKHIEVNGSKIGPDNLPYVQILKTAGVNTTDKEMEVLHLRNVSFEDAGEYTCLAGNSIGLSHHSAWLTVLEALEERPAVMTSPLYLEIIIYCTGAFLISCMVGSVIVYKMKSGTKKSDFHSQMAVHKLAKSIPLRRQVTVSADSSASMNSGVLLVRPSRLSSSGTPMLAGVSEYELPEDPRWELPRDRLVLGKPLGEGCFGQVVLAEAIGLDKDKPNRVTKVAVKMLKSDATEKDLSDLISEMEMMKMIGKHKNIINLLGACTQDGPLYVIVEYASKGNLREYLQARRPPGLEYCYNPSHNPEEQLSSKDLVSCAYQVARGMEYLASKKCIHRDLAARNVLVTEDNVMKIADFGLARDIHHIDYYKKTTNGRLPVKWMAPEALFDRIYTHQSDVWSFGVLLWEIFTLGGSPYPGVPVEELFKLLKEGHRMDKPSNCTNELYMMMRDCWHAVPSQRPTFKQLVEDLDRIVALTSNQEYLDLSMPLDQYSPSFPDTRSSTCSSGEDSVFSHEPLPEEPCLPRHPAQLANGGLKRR
row,Binder,IC50 of pERK inhibition (AlphaScreen SureFire) in NCI-H1581 cells [nM]
1,B1,4.12
2,B6,3.04
3,B2,0.385
4,B3,1.91
5,B4,1.01
6,B5,0.715

# Biological target: T4, 6His-Fc-FGFR4
# Test: competition ELISA, blocks 6His-Fc-FGFR4 binding to coated FGF2
# Procedure: (§2) ELISA plates were coated with 50 ug/ml Heparin Sulfate (HSPG) (Sigma Aldrich) and incubated overnight at room temperature. Plates were then washed extensively with PBS containing 0.05% v/v Tween20 (PBST). Plates were then blocked with 2.5% BSA in PBST for one hour and washed extensively as before. 40-60 μL of FGF1 or FGF2 was then added to each well at 40 μg/ml and allowed to bind at room temperature for 2 hours. Plates were then washed extensively with PBST as before. Stock solutions of each 6His-Fc-FGFR (FGFR1-4) were prepared at 500 ng/ml in 2% v/v BSA-PBST and each antibody was prepared as a 2×-dilution series in 2% v/v BSA-PBST. Antibodies dilution series and 6His-Fc-FGFR1-4 were diluted in a 1:1 fashion and immediately added to the relative wells of the plate and allowed to bind for 2 hours at room temperature. Plates were washed extensively as before with PBST and the remaining fraction of bound 6His-Fc-FGFR was detected using a polyclonal-anti-His-6-HRP conjugated antibody (Abcam) for one hour at room temperature. After extensive washing with PBST, 50 μl of Pierce Chemiluminescent substrate (Thermo Fisher Scientific, Rockford, USA) was added and plates were measured on an Envision plate reader (Perkin Elmer). Raw data was background corrected and plotted using Prism software. […]
row,Binder,IC50 [nM]
1,B1,25.7
2,B6,23.8
3,B2,~7.32
4,B3,14
5,B4,11.8
6,B5,7.38

# Biological target: soluble FGFR2c receptor protein (human, UniProt P21802 148-377)
# Test: BLI Octet RED96, antibody on anti-hIgG Fc tip
# Procedure: (§3) Briefly, the Pall ForteBio Octet RED96 Bio-Layer Interferometry system was used to determine the specificity of anti-FGFR antibodies for FGFR1c, FGFR2c, FGFR3c, and FGFR4. The antibodies and soluble receptor proteins were prepared in PBS at a concentration of 300 nM. First, the candidate antibodies were immobilized on the surface of anti-human IgG Fc biosensor tips for 120 seconds. After immobilization, the biosensors were dipped in PBS solution for 60 seconds (baseline step) to assess assay drift, and determine loading level of antibodies. The baseline step was followed by an association step of 300 seconds wherein the binding interaction between the immobilized antibodies and soluble receptors was measured. Following the association step, the biosensors were dipped into PBS buffer for 600 seconds to measure the dissociation of the bound receptor proteins from the immobilized antibodies. Each binding response was measured and reported real time on a sensorgram trace. For data analysis, a simple 1:1 binding model was used which measures the rate of complex formation of one immobilized antibody and one soluble receptor protein.
# Sequence of soluble FGFR2c receptor protein (P21802 148-377): as the sequence (P21802 148-377) above
Binder,Kd,koff,kon
B1,10.3 nM and 11.8 nM and 11.5 nM,0.00193 s⁻¹ and 0.00234 s⁻¹ and 0.00235 s⁻¹,183000 M⁻¹ s⁻¹ and 199000 M⁻¹ s⁻¹ and 205000 M⁻¹ s⁻¹
B2,6.93 nM,0.00188 s⁻¹,254000 M⁻¹ s⁻¹
B3,8.75 nM,0.00142 s⁻¹,147000 M⁻¹ s⁻¹
B4,6.61 nM,0.00167 s⁻¹,252000 M⁻¹ s⁻¹
B5,4.62 nM,0.0011 s⁻¹,218000 M⁻¹ s⁻¹

# Biological target: T5, soluble FGFR1c receptor protein
# Test: BLI Octet RED96, antibody on anti-hIgG Fc tip
# Procedure: as §3
Binder,Kd,kon,koff [s⁻¹]
B1,13.7 nM and 4.72 nM and 7.39 nM,76500 M⁻¹ s⁻¹ and 48900 M⁻¹ s⁻¹ and 44600 M⁻¹ s⁻¹,–
B2,14.5 nM,111000 M⁻¹ s⁻¹,0.00165
B3,20 nM,57000 M⁻¹ s⁻¹,0.00129
B4,8.85 nM,91600 M⁻¹ s⁻¹,0.000967
B5,12 nM,85100 M⁻¹ s⁻¹,0.00116

# Biological target: T6, soluble FGFR4 receptor protein
# Test: BLI Octet RED96, antibody on anti-hIgG Fc tip
# Procedure: as §3
Binder,Kd,koff,kon
B1,11.2 nM and 7.35 nM and 7.88 nM,0.00124 s⁻¹ and 0.00091 s⁻¹ and 0.00101 s⁻¹,98200 M⁻¹ s⁻¹ and 124000 M⁻¹ s⁻¹ and 128000 M⁻¹ s⁻¹
B2,12.5 nM,0.00169 s⁻¹,117000 M⁻¹ s⁻¹
B3,40.3 nM,0.00248 s⁻¹,60600 M⁻¹ s⁻¹
B4,8.63 nM,0.0012 s⁻¹,125000 M⁻¹ s⁻¹
B5,6.69 nM,0.000887 s⁻¹,112000 M⁻¹ s⁻¹

# Biological target: T7, soluble FGFR3c receptor protein
# Test: BLI Octet RED96, antibody on anti-hIgG Fc tip
# Procedure: as §3
Binder,Kd,koff,kon
B1,8.42 nM and 8.59 nM and 8.21 nM,0.00108 s⁻¹ and 0.00105 s⁻¹ and 0.00102 s⁻¹,121000 M⁻¹ s⁻¹ and 123000 M⁻¹ s⁻¹ and 124000 M⁻¹ s⁻¹
B2,15.4 nM,0.00239 s⁻¹,154000 M⁻¹ s⁻¹
B3,37.6 nM,0.00286 s⁻¹,75600 M⁻¹ s⁻¹
B4,6.29 nM,0.000983 s⁻¹,151000 M⁻¹ s⁻¹
B5,11.6 nM,0.0015 s⁻¹,126000 M⁻¹ s⁻¹

# Biological target: T1, recombinant human FGFR3c Fc fusion
# Test: ELISA, scFv on coated FGFR-Fc
# Procedure: (§4) To characterize the novel anti-FGFR antibodies, their relative ability to bind to each individual FGFR in vitro was compared. A solid phase-based ELISA was used to measure the relative binding of the candidate antibodies to immobilized recombinant human FGFR1c, FGFR2c, FGFR3c, and FGFR4. EC50 binding curves were generated for a subset of candidates (FIGS. 3A-3D, respectively; Table 1).
# as §1
row,Binder,EC50 [nM]
1,B7,25.9

# Biological target: T2, recombinant human FGFR1c Fc fusion
# Test: ELISA, scFv on coated FGFR-Fc
# Procedure: as §4, §1
row,Binder,EC50 [nM]
1,B7,0.247

# Biological target: T3, recombinant human FGFR4 Fc fusion
# Test: ELISA, scFv on coated FGFR-Fc
# Procedure: as §4, §1
row,Binder,EC50 [nM]
1,B7,0.506

# Biological target: T8, 6His-Fc-FGFR1c
# Test: competition ELISA, blocks 6His-Fc-FGFR1c binding to coated FGF2
# Procedure: as §2
row,Binder,IC50 [nM]
1,B1,3.35
2,B6,4.52
3,B2,3.83
4,B3,4.16
5,B4,2.03
6,B5,4.15
